Assay results: patent US20210107971A1 (UCB, published 2021)
Blank lines part the entries; values can stand above or below the binder they belong to. No end group written: not given here.

Experiments:
[1] = biological target: T1, purified recombinant human alpha synuclein fibrils (human, UniProt P37840 1-140); assay: cell-based or functional assay
[2] = biological target: T1, purified recombinant human alpha …; assay: SPR, Biacore T200, as in Example 3; full-length IgG4P injected
Description: (§1) Interaction kinetics were determined by using surface plasmon resonance technology on a Biacore T200 instrument. Three different ligands including recombinant full-length human alpha synuclein monomer, purified recombinant human alpha synuclein fibrils, and purified recombinant mouse alpha synuclein fibrils, prepared as described herein, were each immobilized on three different flow cells of a CM5 chip surface using amine-coupling chemistry. The three ligands were prepared in 10 mM NaAc, pH 3.5, and immobilized onto separate flow cell surfaces to reach an immobilization level of about 30 response units (RU) for alpha synuclein monomer, about 40 RU for human alpha synuclein fibrils, and about 300 RU for mouse alpha synuclein fibrils respectively, at a flow rate of 10 μI/min. The buffer HBS-EP+(GE healthcare Bio-Sciences AB) was used as running buffer for both ligand immobilization and kinetics assay. […] The surface was regenerated by one injection of 50 mM HCl for 90 s at 10 μI/min, and another injection of 50 mM HCl for 60 s at 10 μI/min. The data were analyzed using the Biacore T200 evaluation software (version 3.0) using the bivalent analyte model with assumed no bulk contribution (RI=0) and global Rmax for IgG format, and 1:1 model with flexible bulk contribution (local RI) and global Rmax.

[3] = biological target: T2, recombinant full-length human alpha synuclein monomer (human, UniProt P37840 1-140); assay: as above
Description: as §1

[4] = biological target: T1, purified recombinant human alpha …; assay: affinity for human alpha synuclein fibrils, IgG4P; method not given; Table 6 humanization screen, separate from Table 7B
[5] = biological target: T2, recombinant full-length human alpha …; assay: SPR, Biacore T200, as in Example 3; full-length IgG4P injected; human monomer
Description: as §1

[6] = biological target: T1, purified recombinant human alpha …; assay: SPR, Biacore T200, as in Example 3; full-length IgG4P injected; human fibril
[7] = biological target: purified recombinant human alpha synuclein fibrils (human, UniProt P37840 1-140); assay: affinity for human alpha synuclein fibrils, IgG4P; method not given
[8] = biological target: T1, purified recombinant human alpha …; assay: kinetics table of Example 9 (method not named there; same values as Table 7B, SPR)
[9] = biological target: T2, recombinant full-length human alpha …; assay: as above
[10] = biological target: T1, purified recombinant human alpha …; assay: cell-based or functional assay; remark: listed apart in the source
[11] = biological target: T1, purified recombinant human alpha …; assay: affinity for human alpha synuclein fibrils, IgG4P; method not given; remark: listed apart in the source
[12] = biological target: T3, human beta synuclein (rPeptide) (human, UniProt Q16143 1-134); assay: Western blot, 1 microgram synuclein
T3 construct: also called rPeptide beta synuclein
Description: The binding of antibodies raised against human alpha synuclein to human beta synuclein were tested by Western blot using rPeptide beta synuclein. […] The membrane was blocked in PBS with 3% BSA and 0.1% Tween20. […] The blot was washed extensively in PBS with 0.1% Tween20, PBS and water. Chemi-luminescence was measured after addition of ECL Western blot substrate (Pierce).

[13] = biological target: T4, biotinylated peptide corresponding to residues 117 to 126 of human alpha synuclein (peptide PVDPDNEAYE) (human, also: biotinylated, site not given here); assay: streptavidin-capture ELISA on biotinylated peptide PVDPDNEAYE, HRP anti-rabbit IgG Fc, TMB, OD 630 nm
T4 construct: Captured on streptavidin plates for ELISA
T4 peptide: PVDPDNEAYE

T3 sequence (Q16143 whole entry): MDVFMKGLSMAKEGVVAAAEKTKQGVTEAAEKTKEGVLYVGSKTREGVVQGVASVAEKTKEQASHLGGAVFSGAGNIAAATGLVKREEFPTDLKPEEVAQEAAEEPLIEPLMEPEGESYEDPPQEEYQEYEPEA

IC50, inhibition of alpha synuclein aggregation induced by fibrils in HEK293F cells expressing alpha synuclein (% pSer129+ cells) [1]: < 5 nM
koff [2]: 0.000142 s⁻¹
kon [2]: 855000 M⁻¹ s⁻¹
koff [3]: 0.0242 s⁻¹
kon [3]: 1.2e+06 M⁻¹ s⁻¹
Kd [4]: 0.148 nM
Kd [5]: 20.1 nM
Kd [6]: 0.166 nM
B1: 6470gL3gH23 IgG4P (antibody, V domains shown)
VH: EVQLLESGGGLVQPGGSLRLSCAVSGIDLSSHDMYWVRQAPGKGLEYIGAIYASGSTYYASWAKGRFTISRDNSKNTVYLQMNSLRAEDTAVYYCARIHYGNSGGLWGQGTLVTVSS
VL: DIQMTQSPSSLSASVGDRVTITCQASQSVYKNNYLAWFQQKPGKAPKQLIYGASTLASGVPSRFSGSGSGTQFTLTISSLQPEDFATYYCAGYKGGRNDGFAFGGGTKVEIKR
notes: Full-length humanized human IgG4P; also called VR6470 gL3

Kd [7]: 76 nM
B2: 6470gL3gH25 (antibody, V domains shown)
VH: EVQLLESGGGLVQPGGSLRLSCAVSGIDLSSHDMYWVRQAPGKGLEWIGAIYASGSTYYASWAKGRFTISKDSSKNTVYLQMNSLRAEDTAVYYCARIHYGNSGGLWGQGTLVTVSS
VL: DIQMTQSPSSLSASVGDRVTITCQASQSVYKNNYLAWFQQKPGKAPKQLIYGASTLASGVPSRFSGSGSGTQFTLTISSLQPEDFATYYCAGYKGGRNDGFAFGGGTKVEIKR

IC50, inhibition of alpha synuclein aggregation induced by fibrils in HEK293F cells expressing alpha synuclein (% pSer129+ cells) [1]: < 5 nM
IC50, inhibition of alpha synuclein aggregation induced by fibrils on mouse primary neurons (pSer129 alpha synuclein signal) [1]: < 4 nM
Kd [8]: 0.298 nM
koff [8]: 0.000317 s⁻¹
kon [8]: 1.07e+06 M⁻¹ s⁻¹
Kd [9]: 15.1 nM
koff [9]: 0.0174 s⁻¹
kon [9]: 1.15e+06 M⁻¹ s⁻¹
Kd [2]: 0.298 nM
koff [2]: 0.000317 s⁻¹
kon [2]: 1.07e+06 M⁻¹ s⁻¹
Kd [3]: 15.1 nM
koff [3]: 0.0174 s⁻¹
kon [3]: 1.15e+06 M⁻¹ s⁻¹
IC50 (nM), HEK cell-based aggregation assay [10]: < 5 nM
Kd [11]: 0.166 nM
B3: 6470gL3gH36 IgG4P (antibody, V domains shown)
VH: EVQLLESGGGLVQPGGSLRLSCAVSGIDLSSHDMYWVRQAPGKGLEYIGAIYASGSTYYASWAKGRFTISRDSSKNTLYLQMNSLRAEDTAVYYCARIHYGNSGGLWGQGTLVTVSS
VL: DIQMTQSPSSLSASVGDRVTITCQASQSVYKNNYLAWFQQKPGKAPKQLIYGASTLASGVPSRFSGSGSGTQFTLTISSLQPEDFATYYCAGYKGGRNDGFAFGGGTKVEIKR
notes: Full-length humanized human IgG4P; also called VR6470 gL3; VR6470

binding result [12]: no binding
binding result [13]: no binding
B4: monoclonal 6470 rabbit IgG1 (antibody, V domains shown)
VH: QSVEESGGRLVTPGTPLTLTCTVSGIDLSSHDMYWVRQAPGKGLEYIGAIYASGSTYYASWAKGRFTISKTSTTVDLKMTSLTTEDTATYFCARIHYGNSGGLWGQGTLVTVSS
VL: AIVMTQTPSSKSVAVGDTVTINCQASQSVYKNNYLAWFQQKPGQPPKQLIYGASTLASGVPSRFKGSGSGTQFTLTISDVVCDDAATYYCAGYKGGRNDGFAFGGGTEVVVKR
notes: Recombinant rabbit IgG1/kappa expressed in Expi293 cells
